Bridges are numbered along the chain shown (N, C = ends). Where no end group is shown, it is not given here.

A word on the EC50: it is the concentration at which the effect is half-maximal. The low end stands for greater potency, the high end for weaker potency.

The labels stand for the following.
B1: mt-147 (peptide)
peptide: YSQGTFTSDYSIYLDEQAAKEFIAWLLAGGPSSGAPPPS-NH2
modifications: lactam 16-20; N-terminus assumed
SMILES: CC[C@H](C)[C@H](NC(=O)[C@H](Cc1ccccc1)NC(=O)[C@H](CCC(=O)O)NC(=O)[C@@H]1CCCCNC(=O)CC[C@H](NC(=O)[C@H](CC(=O)O)NC(=O)[C@H](CC(C)C)NC(=O)[C@H](Cc2ccc(O)cc2)NC(=O)[C@@H](NC(=O)[C@H](CO)NC(=O)[C@H](Cc2ccc(O)cc2)NC(=O)[C@H](CC(=O)O)NC(=O)[C@H](CO)NC(=O)[C@@H](NC(=O)[C@H](Cc2ccccc2)NC(=O)[C@@H](NC(=O)CNC(=O)[C@H](CCC(N)=O)NC(=O)[C@H](CO)NC(=O)[C@@H](N)Cc2ccc(O)cc2)[C@@H](C)O)[C@@H](C)O)[C@@H](C)CC)C(=O)N[C@@H](CCC(N)=O)C(=O)N[C@@H](C)C(=O)N[C@@H](C)C(=O)N1)C(=O)N[C@@H](C)C(=O)N[C@@H](Cc1c[nH]c2ccccc12)C(=O)N[C@@H](CC(C)C)C(=O)N[C@@H](CC(C)C)C(=O)N[C@@H](C)C(=O)NCC(=O)NCC(=O)N1CCC[C@H]1C(=O)N[C@@H](CO)C(=O)N[C@@H](CO)C(=O)NCC(=O)N[C@@H](C)C(=O)N1CCC[C@H]1C(=O)N1CCC[C@H]1C(=O)N1CCC[C@H]1C(=O)N[C@@H](CO)C(N)=O
B2: mt-143 (peptide)
peptide: YSQGTFTSDYSKYLDERRAKEFVNWLLAGGPSSGAPPPS-NH2
modifications: lactam 16-20; N-terminus assumed
SMILES: CC(C)C[C@H](NC(=O)[C@H](CC(C)C)NC(=O)[C@H](Cc1c[nH]c2ccccc12)NC(=O)[C@H](CC(N)=O)NC(=O)[C@@H](NC(=O)[C@H](Cc1ccccc1)NC(=O)[C@H](CCC(=O)O)NC(=O)[C@@H]1CCCCNC(=O)CC[C@H](NC(=O)[C@H](CC(=O)O)NC(=O)[C@H](CC(C)C)NC(=O)[C@H](Cc2ccc(O)cc2)NC(=O)[C@H](CCCCN)NC(=O)[C@H](CO)NC(=O)[C@H](Cc2ccc(O)cc2)NC(=O)[C@H](CC(=O)O)NC(=O)[C@H](CO)NC(=O)[C@@H](NC(=O)[C@H](Cc2ccccc2)NC(=O)[C@@H](NC(=O)CNC(=O)[C@H](CCC(N)=O)NC(=O)[C@H](CO)NC(=O)[C@@H](N)Cc2ccc(O)cc2)[C@@H](C)O)[C@@H](C)O)C(=O)N[C@@H](CCCNC(=N)N)C(=O)N[C@@H](CCCNC(=N)N)C(=O)N[C@@H](C)C(=O)N1)C(C)C)C(=O)N[C@@H](C)C(=O)NCC(=O)NCC(=O)N1CCC[C@H]1C(=O)N[C@@H](CO)C(=O)N[C@@H](CO)C(=O)NCC(=O)N[C@@H](C)C(=O)N1CCC[C@H]1C(=O)N1CCC[C@H]1C(=O)N1CCC[C@H]1C(=O)N[C@@H](CO)C(N)=O
B3: mt-141 (peptide)
peptide: YSQGTFTSDYSKYMDEQAAKEFVNWLLAGGPSSGAPPPS-NH2
modifications: lactam 16-20; N-terminus assumed
SMILES: CSCC[C@H](NC(=O)[C@H](Cc1ccc(O)cc1)NC(=O)[C@H](CCCCN)NC(=O)[C@H](CO)NC(=O)[C@H](Cc1ccc(O)cc1)NC(=O)[C@H](CC(=O)O)NC(=O)[C@H](CO)NC(=O)[C@@H](NC(=O)[C@H](Cc1ccccc1)NC(=O)[C@@H](NC(=O)CNC(=O)[C@H](CCC(N)=O)NC(=O)[C@H](CO)NC(=O)[C@@H](N)Cc1ccc(O)cc1)[C@@H](C)O)[C@@H](C)O)C(=O)N[C@@H](CC(=O)O)C(=O)N[C@H]1CCC(=O)NCCCC[C@@H](C(=O)N[C@@H](CCC(=O)O)C(=O)N[C@@H](Cc2ccccc2)C(=O)N[C@H](C(=O)N[C@@H](CC(N)=O)C(=O)N[C@@H](Cc2c[nH]c3ccccc23)C(=O)N[C@@H](CC(C)C)C(=O)N[C@@H](CC(C)C)C(=O)N[C@@H](C)C(=O)NCC(=O)NCC(=O)N2CCC[C@H]2C(=O)N[C@@H](CO)C(=O)N[C@@H](CO)C(=O)NCC(=O)N[C@@H](C)C(=O)N2CCC[C@H]2C(=O)N2CCC[C@H]2C(=O)N2CCC[C@H]2C(=O)N[C@@H](CO)C(N)=O)C(C)C)NC(=O)[C@H](C)NC(=O)[C@H](C)NC(=O)[C@H](CCC(N)=O)NC1=O
B4: mt-144 (peptide)
peptide: YAQGTFTSDYSIYMDEQAAKEFVNWLLAGGPSSGAPPPS-NH2
modifications: lactam 16-20; N-terminus assumed
SMILES: CC[C@H](C)[C@H](NC(=O)[C@H](CO)NC(=O)[C@H](Cc1ccc(O)cc1)NC(=O)[C@H](CC(=O)O)NC(=O)[C@H](CO)NC(=O)[C@@H](NC(=O)[C@H](Cc1ccccc1)NC(=O)[C@@H](NC(=O)CNC(=O)[C@H](CCC(N)=O)NC(=O)[C@H](C)NC(=O)[C@@H](N)Cc1ccc(O)cc1)[C@@H](C)O)[C@@H](C)O)C(=O)N[C@@H](Cc1ccc(O)cc1)C(=O)N[C@@H](CCSC)C(=O)N[C@@H](CC(=O)O)C(=O)N[C@H]1CCC(=O)NCCCC[C@@H](C(=O)N[C@@H](CCC(=O)O)C(=O)N[C@@H](Cc2ccccc2)C(=O)N[C@H](C(=O)N[C@@H](CC(N)=O)C(=O)N[C@@H](Cc2c[nH]c3ccccc23)C(=O)N[C@@H](CC(C)C)C(=O)N[C@@H](CC(C)C)C(=O)N[C@@H](C)C(=O)NCC(=O)NCC(=O)N2CCC[C@H]2C(=O)N[C@@H](CO)C(=O)N[C@@H](CO)C(=O)NCC(=O)N[C@@H](C)C(=O)N2CCC[C@H]2C(=O)N2CCC[C@H]2C(=O)N2CCC[C@H]2C(=O)N[C@@H](CO)C(N)=O)C(C)C)NC(=O)[C@H](C)NC(=O)[C@H](C)NC(=O)[C@H](CCC(N)=O)NC1=O
B5: mt-148 (peptide)
peptide: YSEGTFTSDYSIYLDEQAAKEFIAWLLAGGPSSGAPPPS-NH2
modifications: lactam 16-20; N-terminus assumed
SMILES: CC[C@H](C)[C@H](NC(=O)[C@H](Cc1ccccc1)NC(=O)[C@H](CCC(=O)O)NC(=O)[C@@H]1CCCCNC(=O)CC[C@H](NC(=O)[C@H](CC(=O)O)NC(=O)[C@H](CC(C)C)NC(=O)[C@H](Cc2ccc(O)cc2)NC(=O)[C@@H](NC(=O)[C@H](CO)NC(=O)[C@H](Cc2ccc(O)cc2)NC(=O)[C@H](CC(=O)O)NC(=O)[C@H](CO)NC(=O)[C@@H](NC(=O)[C@H](Cc2ccccc2)NC(=O)[C@@H](NC(=O)CNC(=O)[C@H](CCC(=O)O)NC(=O)[C@H](CO)NC(=O)[C@@H](N)Cc2ccc(O)cc2)[C@@H](C)O)[C@@H](C)O)[C@@H](C)CC)C(=O)N[C@@H](CCC(N)=O)C(=O)N[C@@H](C)C(=O)N[C@@H](C)C(=O)N1)C(=O)N[C@@H](C)C(=O)N[C@@H](Cc1c[nH]c2ccccc12)C(=O)N[C@@H](CC(C)C)C(=O)N[C@@H](CC(C)C)C(=O)N[C@@H](C)C(=O)NCC(=O)NCC(=O)N1CCC[C@H]1C(=O)N[C@@H](CO)C(=O)N[C@@H](CO)C(=O)NCC(=O)N[C@@H](C)C(=O)N1CCC[C@H]1C(=O)N1CCC[C@H]1C(=O)N1CCC[C@H]1C(=O)N[C@@H](CO)C(N)=O
B6: mt-149 (peptide)
peptide: YAEGTFTSDYSIYLDEQAAKEFVNWLLAGGPSSGAPPPS-NH2
modifications: lactam 16-20; N-terminus assumed
SMILES: CC[C@H](C)[C@H](NC(=O)[C@H](CO)NC(=O)[C@H](Cc1ccc(O)cc1)NC(=O)[C@H](CC(=O)O)NC(=O)[C@H](CO)NC(=O)[C@@H](NC(=O)[C@H](Cc1ccccc1)NC(=O)[C@@H](NC(=O)CNC(=O)[C@H](CCC(=O)O)NC(=O)[C@H](C)NC(=O)[C@@H](N)Cc1ccc(O)cc1)[C@@H](C)O)[C@@H](C)O)C(=O)N[C@@H](Cc1ccc(O)cc1)C(=O)N[C@@H](CC(C)C)C(=O)N[C@@H](CC(=O)O)C(=O)N[C@H]1CCC(=O)NCCCC[C@@H](C(=O)N[C@@H](CCC(=O)O)C(=O)N[C@@H](Cc2ccccc2)C(=O)N[C@H](C(=O)N[C@@H](CC(N)=O)C(=O)N[C@@H](Cc2c[nH]c3ccccc23)C(=O)N[C@@H](CC(C)C)C(=O)N[C@@H](CC(C)C)C(=O)N[C@@H](C)C(=O)NCC(=O)NCC(=O)N2CCC[C@H]2C(=O)N[C@@H](CO)C(=O)N[C@@H](CO)C(=O)NCC(=O)N[C@@H](C)C(=O)N2CCC[C@H]2C(=O)N2CCC[C@H]2C(=O)N2CCC[C@H]2C(=O)N[C@@H](CO)C(N)=O)C(C)C)NC(=O)[C@H](C)NC(=O)[C@H](C)NC(=O)[C@H](CCC(N)=O)NC1=O

The target in the first test is glucagon receptor (UniProt P47871 26-477, limits assumed). Put plainly: cell-based or functional assay.
glucagon receptor, sequence (P47871 26-477 limits assumed): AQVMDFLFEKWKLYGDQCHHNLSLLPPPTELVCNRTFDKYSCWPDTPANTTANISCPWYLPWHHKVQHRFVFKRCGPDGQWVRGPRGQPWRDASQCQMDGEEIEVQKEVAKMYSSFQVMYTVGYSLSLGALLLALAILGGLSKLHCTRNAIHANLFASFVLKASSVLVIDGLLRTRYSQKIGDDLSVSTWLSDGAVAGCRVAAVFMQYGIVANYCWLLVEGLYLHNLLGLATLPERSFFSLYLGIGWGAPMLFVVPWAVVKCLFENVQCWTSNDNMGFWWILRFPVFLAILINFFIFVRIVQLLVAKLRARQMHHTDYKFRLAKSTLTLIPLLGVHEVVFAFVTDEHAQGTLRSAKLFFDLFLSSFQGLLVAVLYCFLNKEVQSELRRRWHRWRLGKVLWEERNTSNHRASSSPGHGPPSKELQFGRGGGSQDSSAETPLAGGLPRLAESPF
In the case of B1, the midpoint of the response, the EC50, lay at 0.116 nM and the relative activity was found to be 90.5%.

Take B2: the midpoint of the response, the EC50, lay at 0.086 nM and the relative activity was 497%.

For the molecule B3, the concentration for a half-maximal effect (EC50) stood at 0.15 nM and the relative activity came to 269%.

With B4, the “EC50” value amounted to 2.27 nM and the relative activity is 16.8%.

As to B5, the “EC50” value was found to be 4.91 nM and the relative activity was 2.14%.

Turning to B6, the “EC50” value stood at 16.3 nM and the relative activity was 0.64%.

For another test, the target named is GLP-1 receptor (UniProt P43220 24-463, limits assumed). As to the kind of experiment: cell-based or functional assay.
For the molecule B1, the response was half-maximal at 0.105 nM (EC50) and the relative activity came to 33.9%.

For the molecule B2, the “EC50” value turned out to be 1.48 nM and the relative activity was found to be 4.53%.

As to B3, the “EC50” value turned out to be 0.16 nM and the relative activity was 36.8%.

With B4, the “EC50” value was found to be 0.036 nM and the relative activity turned out to be 142%.

Regarding B5, the “EC50” value was found to be 0.098 nM and the relative activity amounted to 36.2%.

As for B6, a half-maximal effect (EC50) was put at 0.036 nM and the relative activity was found to be 97.5%.

The target in another test is T1, GIP receptor (UniProt P48546 22-466).
T1 sequence (looked up): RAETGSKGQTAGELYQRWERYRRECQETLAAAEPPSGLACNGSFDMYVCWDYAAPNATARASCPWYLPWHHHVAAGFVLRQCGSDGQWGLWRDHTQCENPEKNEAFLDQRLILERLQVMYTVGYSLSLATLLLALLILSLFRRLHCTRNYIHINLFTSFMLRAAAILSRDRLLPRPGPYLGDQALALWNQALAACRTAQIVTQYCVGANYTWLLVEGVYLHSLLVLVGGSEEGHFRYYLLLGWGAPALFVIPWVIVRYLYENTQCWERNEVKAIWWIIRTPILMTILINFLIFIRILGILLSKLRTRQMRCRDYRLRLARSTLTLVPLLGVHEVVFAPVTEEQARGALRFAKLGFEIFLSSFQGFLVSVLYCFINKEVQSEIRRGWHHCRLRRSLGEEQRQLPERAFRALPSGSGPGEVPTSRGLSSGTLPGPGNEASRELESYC
Put plainly: cell-based or functional assay.
Turning to B1, the response was half-maximal at 0.144 nM (EC50) and the relative activity is 43.1%.

As to B2, the response was half-maximal at 2.63 nM (EC50) and the relative activity came to 1.82%.

Consider B3, for which the “EC50” value amounted to 0.747 nM and the relative activity was determined as 10%.

Consider B4, for which the “EC50” value was 0.48 nM and the relative activity was determined as 18.5%.

On to B5, for which a half-maximal response (EC50) required 0.095 nM and the relative activity came to 65.3%.

On to B6, for which the “EC50” value was determined as 0.068 nM and the relative activity turned out to be 91.2%.

For the origin of these results see patent US20110166062A1 (INDIANA UNIVERSITY RESEARCH AND TECHNOLOGY, published 2011).
